Measurements published in patent publication US11433139B2, “Peptide vaccines against interleukin-31” (Zoetis Services LLC, priority 2018, dated 2022).

Legend:
wildtype feline IL-31 [1] = assay: Biacore binding, single test concentration of antibody, feline IL-31 surface
Protocol: For the indirect ELISA, binding (ELISA OD) to wildtype feline IL-31 and a feline IL-31 15H05 mutant which had mutations in the monoclonal antibody 15H05 epitope region was assessed. To confirm binding, biacore analysis was performed using canine, feline, equine, human, the feline 15H05 mutant, and feline 11E12 mutant IL-31 proteins as surfaces and a single test concentration of antibody. The feline IL-31 11E12 mutant had mutations in the monoclonal antibody 11E12 epitope region.
For the indirect ELISA method, antibody binding to wildtype and feline IL-31 15H05 mutant proteins was assessed. […] In comparison, the 11E12 antibody bound to the wild-type feline IL-31 and its binding was not impacted by the mutations in the 15H05 epitope region as evidenced by the data in FIG. 4. To confirm binding, biacore analysis was performed using canine, feline, equine, human, feline 15H05 mutant, and feline 11E12 mutant IL-31 proteins as surfaces and a single test concentration of antibody. Similar to ELISA observations, all antibodies tested bound to wildtype feline IL-31. In agreement with the data described above in this section, mouse antibodies 11 E12 and 15H05 both bound to canine and feline IL-31 surfaces. […] From this group of nine fully canine antibodies, only ZIL1 and ZIL9 cross-reacted with equine IL-31. […]

feline IL-31 [2] = assay: Affinity of anti-IL-31 antibodies by surface plasmon resonance (Biacore), feline IL-31 surface; format: binding; settings: IL-31 conjugated to the surface (FIG. 2)
Procedure, shortened: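 IL-31 amine-coupled (NHS/EDC) at 5 μg/mL directly onto the SPR chip, quenched with ethanolamine; candidate mAbs flowed over as analyte. KD from 1:1 model fits; values below 1×10^−11 M are under the instrument's lower quantitation limit.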
Target sequence in this assay (as listed by the source): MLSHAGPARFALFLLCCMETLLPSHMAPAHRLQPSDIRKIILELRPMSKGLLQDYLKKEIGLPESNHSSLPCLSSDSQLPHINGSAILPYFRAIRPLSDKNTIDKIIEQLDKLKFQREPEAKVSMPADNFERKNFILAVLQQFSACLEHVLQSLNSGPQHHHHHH

wildtype feline IL-31 [3] = assay: Indirect ELISA, binding to wildtype feline IL-31
Procedure, shortened: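 Wildtype or 15H05-epitope-mutant feline IL-31 coated directly onto plates as capture antigen (50 ng/well). Antibodies diluted in PBST, bound antibody detected with HRP-labelled secondary and TMB for 10 min at RT. Reaction stopped with 0.1 N HCl, then OD read at 450 nm.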

feline IL-31 [4] = assay: Inhibition of feline IL-31 induced pSTAT3 signaling in canine DH-82 cells; format: cell-based; settings: feline IL-31, pSTAT3, canine DH82 cells (FIG. 3)
Procedure, shortened: (§1)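 DH-82 cells primed with canine IFN-γ 10 ng/mL for 24 h, FCWF4 with feline IFN-γ 125 ng/mL for 96 h, then serum-starved 2 h. mAb pre-incubated 1 h with 1 μg/mL canine or 0.2 μg/mL feline IL-31, cells stimulated 5 min; pSTAT3 by AlphaLISA SureFire, IC50 as half-maximal signalling reduction.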
Target sequence in this assay (as listed by the source): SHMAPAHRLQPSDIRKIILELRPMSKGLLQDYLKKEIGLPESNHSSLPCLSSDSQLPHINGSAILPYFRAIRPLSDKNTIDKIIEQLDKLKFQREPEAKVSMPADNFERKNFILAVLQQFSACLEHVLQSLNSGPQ

[5] = system: feline 15H05 mutant IL-31; assay: Biacore binding, single test concentration of antibody, feline 15H05 mutant IL-31 surface
Procedure, shortened: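 Surface plasmon resonance with IL-31 proteins (wildtype feline, equine, or feline proteins mutated in the 15H05 or 11E12 epitope regions) immobilized as surfaces. Each antibody injected at a single test concentration to score binding.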

feline IL-31 [6] = assay: Inhibition of feline IL-31 induced pSTAT3 signaling in feline FCWF4 macrophage-like cells; format: cell-based; settings: 0.2 μg/mL feline IL-31, pSTAT3, FCWF4 cells (FIG. 3)
Procedure, shortened: as §1

B1: 15H05: mouse anti IL-31 monoclonal antibody, VH SEQ ID NO: 67, VL SEQ ID NO: 69 (antibody, listed as Mus musculus, V domains shown)
VH: QVQLQQSAAELARPGASVKMSCKTSGYTFTSYTIHWIKQRPGQGLEWIGNINPTSGYTENNQRFKDKTTLTVDRSSNTAYLQLHSLTSEDSAVYFCARWGFKYDGEWSFDVWGAGTTVTVSS
VL: DIQMNQSPSSLSASLGDTITVTCRASQGISIWLSWYQQKPGNIPKVLINKASNLHIGVPPRFSGSGSGTHFTLTITSLQPEDIATYYCLQSQTYPLTFGGGTKLEIN
- binding to wildtype feline IL-31 (Biacore) (wildtype feline IL-31 [1]): bound
- affinity (KD) to feline IL-31 (feline IL-31 [2]; listed as Mu-15H05): sub-nanomolar
- affinity (KD) to feline IL-31 (feline IL-31 [2]; listed as mAb 15H05): high
- binding to wildtype feline IL-31 (ELISA) (wildtype feline IL-31 [3]): capable of binding
- potency (IC50) against feline IL-31 in canine DH82 cells (feline IL-31 [4]): comparable
- binding to feline 15H05 mutant IL-31 (Biacore) [5]: did not bind
- potency (IC50) against feline IL-31 in feline FCWF4 cells (feline IL-31 [6]): slight increase in IC50
